B1: NI-607.426_E2 (antibody, V domains shown)
VH: EVQLVESGGGLVQPGGSLRLSCAASGFTFSSYDMHWVRQATGKGLEWVSAIGTAGDTYYPGSVKGRFTISRENAKNSLYLQMNSLRAEDTAVYYCARASFLDYSWLYFDYWGQGTLVTVSS
VL: not shown
B2: NI-607.791_B10 (antibody, V domains shown)
VH: QVQLQQWGAGLLKPSETLSRTCAVYGGSFSDYYWSWIRQPPGKGLEWIGEVNHRGVTNYNPSLKSRVTISIDTSKSQFSLELRSVTDADTALYFCARSPFWTIAARPFDYWGRGTLVTVSS
VL: EIVMTQSPGTLSLSPGERATLSCRASQSVISNYLAWYQQKPGQAPRFLIYAASTRARGIPDRFSGSGSGTDFTLTISRLEAEDFAVYYCQQYGNSPLTFGGGTKLEIK
B3: NI-607.820_B7 (antibody, V domains shown)
VH: EVQLVESGGGLVQPGRSLRLSCAASGFTFDDFDMHWVRQAPGKGLEWVSGVTWNSGIIGYADSVKGRFTISRDNAKNSLYLQMNSLRAEDTALYYCAKEFYPRYGSGIRSHYFGMDVWGQGTTVTVSS
VL: QSVLTQSPSASGTPGQRVTISCSGSSSNVGSNAVNWYQQLPGTAPKLLIYSNNRRPSGVPNRFSGSKSGTSASLAISGLQSDDEADYYCAAWDDSLDGPTFGGGTKLTVL
B4: NI-607.532_C8 (antibody, V domains shown)
VH: QVQLVESGGGLVKPGRSLRLSCTASGFTFGDYAMSWFRQAPGKGLEWVGFIRSKAYGGTTEYAASVKGRFSISRDDSKSIAYLQMNSLKTEDTAVYYCTRGWIVVVIEDAFDIWGQGTMVTVSS
VL: not shown
B5: NI-607.275_C5 (antibody, V domains shown)
VH: QVQLVESGGGLVQPGGSLRLSCAASGFTVSSNYMSWVRQAPGKGLEWVSVIYSGGSTYYADSVKGRFTISRDNSKNTLYLQMNSLRAEDTAVYYCARDFGDYYFDYWGQGTLVTVSS
VL: not shown
B6: NI-607.531_E3 (antibody, V domains shown)
VH: EVQLVESGGGVVQPGRSLRLSCAASGFTFSSYGMHWVRQAPGKGLEWVAVISYDGSNKYYADSVKGRFTISRDNSKNTLYLQMNSLRAEDTAVYYCAKQISGYNYPYYFDYWGQGTLVTVSS
VL: not shown
B7: NI-607.820_B6 (antibody, V domains shown)
VH: EVQLQESGPGLVKPSETLSLTCTVSGGSVSSGSYYWSWIRQPPGKGLEWIGYIYYSGSTNYNPSLKSRVTISVDTSKNQFSLKVSSVTAADTAVYYCARDSIVVVPAARPLYYGMDVWGQGTTVTVSS
VL: not shown
B8: NI-607.532_D4 (antibody, V domains shown)
VH: QVQLVQSGAEVKRPGASVKVSCKASGYHFTDYYIHWVRQAPGQGLEWMGWINPNSGGTNYAQKFQGRVTMTRDTSISTAYMELSRLRSDDTAVYYCARVYYYDSSSFADYWGQGTLVTVSS
VL: not shown
notes: also called NI-607.532_D4C5
B9: NI-607.532_D8 (antibody, V domains shown)
VH: EVQLVESGGGVVQPGRSLRLSCAASGFTFSSYGMHWVRQAPGKGLEWVAVISYDGSNKYYADSVKGRFTISRDNSKNTLYLQMNSLRAEDTAVYYCAKQGGGQYCSGGSCYSGYFDYWGQGTLVTVSS
VL: not shown

Each binder was assayed against T1, BSA (Sigma-Aldrich) (bovine, UniProt P02769 25-607) (assay: direct ELISA on coated BSA).
T1 construct: also called bovine serum albumin; BSA control
B1: no binding (tested: 400 nM).
B2: no binding (tested: 400 nM).
B3: no binding (tested: 400 nM).
B4: no binding (tested: 400 nM).
B5: no binding (tested: 400 nM).
B6: no binding (tested: 400 nM).
B7: no binding (tested: 400 nM).

Each binder was assayed against T2, SARS-CoV-2-S1 (RBD)-His protein (Trenzyme) (SARS-CoV-2, UniProt P0DTC2 319-541) (assay: iQue flow cytometry, antigen-coated beads).
B1 showed an EC50 of 2.06 nM.
B2 showed an EC50 of 13.7 nM.
B3 gave an EC50 of 9 nM.
In the case of B8, the EC50 is reported as 1 nM.
In the case of B9, the EC50 is reported as 14.4 nM.
Binder B5 has an EC50 of 1.5 nM.
For B6, the EC50 was 1.4 nM.
For B7, the EC50 was 2.4 nM.

These binders were tested against T3, MERS-CoV Spike protein fragment (RBD, aa 367-606, His tag) (MERS-CoV, UniProt K9N5Q8 367-606) (assay: iQue flow cytometry, antigen-coated beads).
T3 sequence: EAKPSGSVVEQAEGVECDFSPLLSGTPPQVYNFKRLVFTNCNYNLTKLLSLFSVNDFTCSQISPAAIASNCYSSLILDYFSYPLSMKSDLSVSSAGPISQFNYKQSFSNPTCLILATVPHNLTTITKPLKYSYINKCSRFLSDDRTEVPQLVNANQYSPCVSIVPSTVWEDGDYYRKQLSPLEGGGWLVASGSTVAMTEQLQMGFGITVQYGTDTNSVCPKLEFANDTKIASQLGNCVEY
B1 was tested, and the EC50 was 600 nM.
For B2, the EC50 was 400 nM.
In the case of B3, the EC50 is reported as 800 nM.
Binder B8 has an EC50 of 1000 nM.
B9 showed an EC50 of 1000 nM.
B4 gave an EC50 of 400 nM.
With B5 the EC50 was 800 nM.
B6 gave an EC50 of 1000 nM.
B7 gave an EC50 of 1000 nM.

What follows are binders tested against recombinant SARS-CoV Spike protein (RBD, His tag) (SARS-CoV, UniProt P59594 306-527) (assay: iQue flow cytometry, antigen-coated beads).
B2 was tested, and the EC50 was 400 nM.
B3 showed an EC50 of 800 nM.
In the case of B8, the EC50 is reported as 1000 nM.
Binder B9 has an EC50 of 32 nM.
With B4 the EC50 was 400 nM.
Work on B6 yielded an EC50 of 2.6 nM.
With B7 the EC50 was 60.2 nM.

The binders below were run against T2, SARS-CoV-2-S1 (RBD)-His protein … (assay: competition ELISA, RBD binding to coated ACE2).
B1 was tested, and the IC50 was 10.7 nM.
B5 showed an IC50 of 36.8 nM.

These binders were tested against T2, SARS-CoV-2-S1 (RBD)-His protein … (assay: direct ELISA on coated RBD-His).
Binder B1 has an EC50 of 0.03 nM.
With B2 the EC50 was 0.062 nM.
B3 showed an EC50 of 0.082 nM.
Work on B8 yielded an EC50 of 0.0055 nM.
With B9 the EC50 was 0.0051 nM.
B5 showed an EC50 of 0.02 nM.
For B6, the EC50 was 0.02 nM.
B7 was tested, and the EC50 was 0.029 nM.

From patent US20230242624A1 (NEURIMMUNE, published 2023)
